Data reported in US20210113690A1 (BERLIN CHEMIE, published 2021).

Legend:
LY75 1077-1093 = molecular target: T1, LY75 1077-1093 (human); experiment: peptide microarray; region identified by signal above the cut off
T1 construct: Region put together from overlapping 8mers on the array
T1 peptide: FTSCSERHFVSLCQKYS
Procedure: The peptide microarray analysis was performed by LC Sciences, Houston Tex., in brief the method comprised the following steps: —Contiguous 8mer peptides of LY75 protein having […] spanning residues 216 to 1666 of the full length LY75 protein were synthesized and immobilized on a microarray chip. The chip comprised three panels such that the experiment was performed in triplicate. […] The binding assay was performed under the following conditions:—
The microarray comprising the contiguous peptides in triplicate was washed with 1 mL of binding buffer at 4° C. for 20 min. […] The array was again washed with 0.5 mL of washing buffer at 4° C. for 30 min then incubated with 25 ng/mL anti-human IgG Alexa 647 conjugate in binding buffer (pH 7.0) at 4° C. for 1 hr. The array was again washed with 0.5 mL of washing buffer at 4° C. for 30 min.

[1] = molecular target: Contiguous 8mer peptides of LY75 protein spanning residues 216 to 1666 of the full length LY75 protein (peptide microarray); experiment: peptide microarray, 1 ug/mL LY75_A1, scanned at 635 nm; cut off for non-specific binding 3000

B1: LY75_A1 monoclonal antibody (antibody, human IgG1, kappa, V domains shown)
VH: EVQLVESGGGLVKPGGSLRLSCAASGFTYSNAWMSWVRQAPGKGLEWVGRIKSKTDGGTTDYAAPVQGRFTISRDDSKNTLYLQMNSLKTEDTAVYYCTIFGVVSFDYWGQGTLVTVSS
VL: DVQMTQSPSSLSASVGDRVTITCRASQSISDYLSWYQQRPGKAPNLLIYAASNLKTGVPSRFSGSGSGTDFTLTISTLQPEDFATYYCQQSYRSPWTFGQGTKVEIKR
notes: also called LY75A1 antibody; antibody LY75_A1
binding result (LY75 1077-1093): binds | average signal intensity of all spots (signal intensity (scale 1-65535)) [1]: 885 | maximum signal intensity (signal intensity (scale 1-65535)) [1]: 25000
